Reference: patent US8822187B1, “Polypeptides, nucleic acid molecules, and methods for synthesis of triterpenes” (University of Kentucky Research Foundation, priority 2011, dated 2014)

B1: Botryococcus braunii race B squalene synthase-like 1 (SSL-1), wild type, hexa-histidine tagged, SEQ ID NO: 2 (Botryococcus braunii) (protein)
chain: MTMHQDHGVMKDLVKHPNEFPYLLQLAATTYGSPAAPIPKEPDRAFCYNTLHTVSKGFPRFVMRLPQELQDPICIFYLLLRALDTVEDDMNLKSETKISLLRVFHEHCSDRNWSMKSDYGIYADLMERFPLVVSVLEKLPPATQQTFRENVKYMGNGMADFIDKQILTVDEYDLYCHYVAGSCGIAVTKVIVQFNLATPEADSYDFSNSLGLLLQKANIITDYNEDINEEPRPRMFWPQEIWGKYAEKLADFNEPENIDTAVKCLNHMVTDAMRHIEPSLKGMVYFTDKTVFRALALLLVTAFGHLSTLYNNPNVFKEKVRQRKGRIARLVMSSRNVPGLFRTCLKLANNFESRCKQETANDPTVAMTIKRLQSIQATCRDGLAKYDTPSGLKSFCAAPTPTK
B2: SSL-2: Botryococcus braunii race B squalene synthase-like 2 enzyme; bacterial form is truncated SSL-2-tr2 (protein)
chain: MVKLVEVLQHPDEIVPILQMLHKTYRAKRSYKDPGLAFCYGMLQRVSRSFSVVIQQLPDELRHPICVFYLILRALDTVEDDMNLPNEVKIPLLRTFHEHLFDRSWKLKCGYGPYVDLMENYPLVTDVFLTLSPGAQEVIRDSTRRMGNGMADFIGKDEVHSVAEYDLYCHYVAGLVGSAVAKIFVDSGLEKENLVAEVDLANNMGQFLQKTNVIRDYLEDINEEPAPRMFWPREIWGKYAQELADFKDPANEKAAVQCLNHMVTDALRHCEIGLNVIPLLQNIGILRSCLIPEVMGLRTLTLCYNNPQVFRGVVKMRRGETAKLFMSIYDKRSFYQTYLRLANELEAKCKGEASGDPMVATTLKHVHGIQKSCKAALSSKELLAKSGSALTDDPAIRLLLLVGVVAYFAYAFNLGDVRGEHGVRALGSILDLSQKGLAVASVALLLLVLLARSRLPLLTSASSKQ

How the values were obtained:
[1] = substrate: CC(C)=CCC/C(C)=C/CC/C(C)=C/CO[P@@](=O)(O)OP(=O)(O)O; experiment: purified protein, by the assay type; details: other: purified SSL-1, 3H-FPP, 0.1% triton X-100, 15 min at 37° C., PSPP as sole reaction product
[2] = NADPH oxidation versus squalene and bisfarnesyl ether recovery; type: biochemical
Description: With reference to Table 2, Assays were performed as described above in the Methods except that an alternative reaction buffer (50 mM Tris pH 8.0, 250 mM NaCl, 20 mM MgCl2) was used to minimize spontaneous NADPH oxidation and prevent protein precipitation at high concentrations. […] An extinction coefficient of 6220/M/cm was used to calculate the amount of NADPH oxidized. No NADPH oxidation could be measured in complete reaction buffer without protein over a 1 h incubation. […] This background NADPH oxidation was subtracted from the experimental determined rates. The experimental enzyme assays contained either purified TSS (0.75 or 1.5 μg) or SSL-2 (8 or 16 μg) and 40 μM ^3H-FPP. Absorbance at […] was recorded every 2.5 min. for 15 minutes, after which the reaction was stopped by adding an equal volume of 0.5 M EDTA. The reaction mixture was collected, extracted with 200 μl of hexane and aliquots were separated by silica TLC along with standards of squalene and bisfarnesyl ether using hexane:MTBE (25:1) as the developing solvent. The standards were subsequently visualized with iodine vapor, and corresponding zones analyzed by scintillation spectroscopy. Data represents mean±S.E.M of duplicate samples.

[3] = 100 μM NADPH, 40 μM 3H-FPP, 15 minutes, 23° C.

Molecule | Km [1] | kcat [1] | Bisfarnesyl ether formed [2] | NADPH oxidation not associated with squalene biosynthesis [2] | NADPH oxidized [2] | squalene biosynthesis [2] | bisfarnesyl ether formed per mole equivalent of NADPH oxidation ([2]; 21 pmoles versus 2.4 pmoles) | pmoles bisfarnesyl ether recovered per μg protein [2, 3] | pmoles squalene recovered per μg protein [2, 3] | pmoles NADPH oxidized per μg protein ([2]; 100 μM NADPH, 40 μM FPP, 15 minutes, 23° C., background subtracted) | NADPH oxidation rate in reaction buffer without FPP (background) ([2]; without FPP)
B1 | 12.8 µM | 0.027 s⁻¹ | – | – | – | – | – | – | – | – | –
B2 | – | – | greater than 21 pmoles | 2.4 pmol | 4.6 pmol | 2.2 pmol | about 10 times | 21.7 ± 1.8 pmoles per μg protein | 2.2 ± 0.4 pmoles per μg protein | 4.6 ± 2.6 pmoles per μg protein | 22 pmoles/μg protein/h
